Data on two molecules can be found in paper PMC12098869, “An mRNA-display derived cyclic peptide scaffold reveals the substrate binding interactions of an N-terminal cysteine oxidase” (Nature Communications, 2025).

Broadly, the Kd is the concentration at which binding is half-saturated. A higher Kd goes with weaker binding.

Common to all, as to test: SPR; multi-cycle, equilibrium steady state affinity 1:1 binding model; biotinylated ADO or variant immobilised on a Biotin CAP chip (~2500-3000 RU), peptide injected; 4 °C; 20 mM HEPES pH 7.5, 500 mM NaCl, 10 mM DTT, 0.1% (v/v) tween-20; 50 μL/minute
Conditions in all cases: both partners purified
On the technique in general: In SPR one partner is held on a chip, and binding of the other changes the refractive index at the surface.

Assay [1] concerns the target T1, ADO-Y212F, biotinylated (pQE80L-Navi-ADO) (human, UniProt Q96SZ5 1-270, Y212F, biotin on the Avi tag).
T1 construct: Tag as in Dm1; source: E. coli Rosetta2(DE3), purified (Ni-NTA, SEC); not shown: Avi tag, N-terminal, kept; His6, N-terminal, kept
T1 sequence (looked up): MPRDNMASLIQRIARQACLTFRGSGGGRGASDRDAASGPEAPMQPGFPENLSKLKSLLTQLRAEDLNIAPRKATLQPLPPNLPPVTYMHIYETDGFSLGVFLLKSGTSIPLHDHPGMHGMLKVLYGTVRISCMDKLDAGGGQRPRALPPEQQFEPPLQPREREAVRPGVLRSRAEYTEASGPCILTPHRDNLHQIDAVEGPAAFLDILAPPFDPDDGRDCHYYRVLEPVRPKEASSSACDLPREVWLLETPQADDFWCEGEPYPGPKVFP
A digest of the protocol:
(§1)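 Biotinylated full-length human ADO (wild type or engineered forms) was made in E. coli with a His tag, then purified by nickel affinity and gel filtration. It was captured on a Biotin CAP chip at about 2500–3000 RU in a Biacore T200, and peptides were flowed over it. The run was at 4 °C in HEPES pH 7.5 buffer with 500 mM NaCl, DTT and tween-20, at 50 μL/minute. Kd came from a 1:1 steady-state fit of multi-cycle equilibrium responses.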

Assay [2] concerns the target T2, ADO-Y222A, biotinylated (pQE80L-Navi-ADO) (human, UniProt Q96SZ5 1-270, Y222A, biotin on the Avi tag).
T2 construct: Tag as in Dm1; source: E. coli Rosetta2(DE3), purified (Ni-NTA, SEC); not shown: Avi tag, N-terminal, kept; His6, N-terminal, kept
T2 sequence (looked up): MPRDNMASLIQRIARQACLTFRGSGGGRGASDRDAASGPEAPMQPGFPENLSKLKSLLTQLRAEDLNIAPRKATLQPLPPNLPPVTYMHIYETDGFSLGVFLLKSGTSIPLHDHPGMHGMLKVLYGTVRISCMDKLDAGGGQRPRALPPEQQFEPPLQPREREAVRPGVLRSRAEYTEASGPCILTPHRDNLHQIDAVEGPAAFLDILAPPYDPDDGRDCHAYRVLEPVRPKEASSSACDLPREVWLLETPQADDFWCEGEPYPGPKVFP
A digest of the protocol: as §1

In assay [3] the target is T3, ADO-Y87A, biotinylated (pQE80L-Navi-ADO) (human, UniProt Q96SZ5 1-270, Y87A, biotin on the Avi tag).
T3 construct: Tag as in Dm1; source: E. coli Rosetta2(DE3), purified (Ni-NTA, SEC); not shown: Avi tag, N-terminal, kept; His6, N-terminal, kept
T3 sequence (looked up): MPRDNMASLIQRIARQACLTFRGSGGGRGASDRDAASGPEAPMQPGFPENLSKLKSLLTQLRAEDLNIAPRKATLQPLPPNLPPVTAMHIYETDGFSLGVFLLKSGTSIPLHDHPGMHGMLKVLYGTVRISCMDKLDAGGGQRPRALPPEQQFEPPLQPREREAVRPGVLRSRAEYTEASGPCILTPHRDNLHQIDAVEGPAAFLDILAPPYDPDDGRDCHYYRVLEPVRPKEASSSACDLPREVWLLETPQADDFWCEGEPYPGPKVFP
A digest of the protocol: as §1

The target in assay [4] is T4, ADO-Y87F, biotinylated (pQE80L-Navi-ADO) (human, UniProt Q96SZ5 1-270, Y87F, biotin on the Avi tag).
T4 construct: Tag as in Dm1; source: E. coli Rosetta2(DE3), purified (Ni-NTA, SEC); not shown: Avi tag, N-terminal, kept; His6, N-terminal, kept
T4 sequence (looked up): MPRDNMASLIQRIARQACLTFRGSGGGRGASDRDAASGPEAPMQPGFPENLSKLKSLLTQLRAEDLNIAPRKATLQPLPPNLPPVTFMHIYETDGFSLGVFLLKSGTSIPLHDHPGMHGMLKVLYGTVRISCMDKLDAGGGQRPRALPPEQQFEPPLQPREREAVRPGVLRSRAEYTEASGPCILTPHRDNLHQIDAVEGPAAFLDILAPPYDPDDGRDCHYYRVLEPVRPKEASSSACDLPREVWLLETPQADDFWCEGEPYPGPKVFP
A digest of the protocol:
as §1

Assay [5] addresses T5, ADO-I109A, biotinylated (pQE80L-Navi-ADO) (human, UniProt Q96SZ5 1-270, I109A, biotin on the Avi tag).
T5 construct: Tag as in Dm1; source: E. coli Rosetta2(DE3), purified (Ni-NTA, SEC); not shown: Avi tag, N-terminal, kept; His6, N-terminal, kept
T5 sequence (looked up): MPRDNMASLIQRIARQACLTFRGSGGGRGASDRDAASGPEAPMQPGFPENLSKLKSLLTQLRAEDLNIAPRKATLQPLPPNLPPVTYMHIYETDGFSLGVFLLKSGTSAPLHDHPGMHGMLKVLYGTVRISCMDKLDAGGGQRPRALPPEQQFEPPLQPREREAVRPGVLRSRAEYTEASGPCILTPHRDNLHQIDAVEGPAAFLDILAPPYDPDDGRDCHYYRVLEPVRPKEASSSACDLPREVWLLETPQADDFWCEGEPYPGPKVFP
The essentials: as §1

B1: RGS5_(2-15), synthetic peptide corresponding to the methionine excised N-terminus of RGS5, residues 2 to 15 (peptide, UniProt O15539 2-15, looked up)
peptide: CKGLAALPHSCLER
notes: Regulator of G-protein signalling 5 (RGS5), residues 2 to 15, N-terminal Cys; also called RGS5 peptide; source: synthetic peptide
On to B1, for which the Kd in assay [1] amounted to 24 µM; in assay [2] it was 4.7 µM; in assay [3], 1.7 µM; in assay [4], 0.34 µM; in assay [5] it was 1.3 µM.

B2: IL32_(2-15), synthetic peptide corresponding to the methionine excised N-terminus of IL32, residues 2-15 (peptide, UniProt P24001 2-15, looked up)
peptide: CFPKVLSDDMKKLK
notes: Interleukin 32 (IL32), residues 2-15, N-terminal Cys; also called IL32 peptide; source: synthetic peptide
In the case of B2, the dissociation constant (Kd) in assay [1] amounted to 9.2 µM; in assay [2], 1 µM; in assay [3], 4.2 µM; in assay [4] it was 0.32 µM; in assay [5] it was 16 µM.
